Data from patent US20160348147A1, “SYSTEMS AND DEVICES FOR PROTEASE DETECTION BASED ON ENGINEERED POLYMERS AND BIOPOLYMERS AND METHODS OF USE” (DUKE UNIVERSITY, priority 2014, published 2016).
Several values for one entry are separate records, joined by “and”; a condition that tells them apart may be missing. Identical values can stand only once.

Experiment: Thermal behavior by optical turbidimetry and dynamic light scattering
Type: physicochemical
Conditions: 100 μM in buffer
Protocol: We confirmed the purity and molecular weight of the purified peptides by electrophoresis (10-20% gradient […] SDS-PAGE, Thermo Scientific, CA) and by matrix-assisted laser desorption/ionization mass spectrometry. Mass spectrometry samples were prepared by mixing the enzymatic reaction product with sinapinic acid in 1:10 ratio. 1 μL of the sample/matrix mixture was then loaded on the grid and the measurements were performed on a Voyager-DE-Pro instrument (Applied Biosystems, Germany). To determine the concentration of the ELP-substrate fusion solutions we used a calculated extinction coefficient (Gill, S. C. & Vonhippel, P. H. Analytical Biochemistry 1989, 182, 319-326) or lyophilized the polypeptide solution. We studied the thermal behavior of the ELP-substrate fusion constructs in both proteolysis buffer (see below) and diluted human serum in the presence and absence of MMP-1 using optical turbidimetry on a temperature-programmed UV-vis spectrometer (Cary 300, Agilent Technologies). To characterize the size of the micelles and aggregates, we used single angle dynamic light scattering (DLS; DynaPro, Protein Solution).
FIG. 2 presents optical densities at 350 nm (OD350) and hydrodynamic diameters of ELP-substrate fusion as a function of temperature prior to, and after, enzymatic reaction. […] These changes are consistent with the self-assembly of ELP-substrate fusions (unimers) into micelles as the temperature is raised above the CMT (Ghoorchian, A. et al., The Journal of Physical Chemistry. B 2013, 117, 8865-8874). We note that there is a slight local maximum in both the optical density and hydrodynamic diameter at temperatures slightly above the CMT, which has been observed previously (Hassouneh, W., Duke University, PhD thesis, 2013); the origin of this small peak is, as yet, unclear.

[1] = DLS, prior to enzymatic reaction

Substance: M(GVGVP)60GDGQVPMSMRGGDDEGQQDDEEGY (MGVGVPGDGQVPMSMRGGDDEGQQDDEEGY) [ELP-substrate fusion, recombinant polypeptide: ELP fused to MMP-1 substrate and charged hydrophilic peptide]
- critical micellization temperature (CMT) (prior to enzymatic reaction): ≈ 38 °C and 38 °C
- hydrodynamic diameter above Tt [1]: ≈ 50 nm
- hydrodynamic diameter below the CMT [1]: < 10 nm
- increase of OD350 as the solution is heated through the CMT (before enzymatic reaction): about 0.2 OD units
